Among the data in the Immune Epitope Database (IEDB) are Kd values, retold here.

The target of assay [1] is HLA-A*02:12. Description: IEDB peptide-MHC binding, purified MHC/direct/fluorescence; filed as Kd, often an IC50 or EC50 that approximates it; ≥ and ≤ were set here for values at or beyond the usual limits of such assays. Particulars: source organism: Giardia lamblia ATCC 50803.
Assay [2] deals with HLA-A*02:16. The assay is described as above. Particulars: source organism: Giardia lamblia ATCC 50803.
Assay [3] addresses HLA-A*69:01. Described as above.
The target of assay [4] is HLA-A*02:01. The description is as above.
The target in assay [5] is HLA-A*02:50. Description: IEDB peptide-MHC binding, purified MHC/competitive/fluorescence; filed as Kd, often an IC50 or EC50 that approximates it; ≥ and ≤ were set here for values at or beyond the usual limits of such assays.
The target of assay [6] is HLA-B*27:05. Description: IEDB peptide-MHC binding, purified MHC/direct/fluorescence; filed as Kd, often an IC50 or EC50 that approximates it; ≥ and ≤ were set here for values at or beyond the usual limits of such assays.
The target in assay [7] is HLA-B*46:01. The description is as above.
In assay [8] the target is HLA-A*68:02. Described as above.
In assay [9] the target is HLA-A*26:02. The assay is described as above. Particulars: source organism: Variola virus.
In assay [10] the target is HLA-A*26:01. The assay is described as above.
Assay [11] has as its target HLA-B*08:03. Described as above.
In assay [12] the target is HLA-B*15:02. The assay is described as above.
The target of assay [13] is HLA-B*15:01. The description is as above.
Assay [14] concerns the target HLA-B*48:01. The assay is described as above.
For assay [15], the target named is HLA-A*01:01. Described as above.
For assay [16], the target named is HLA-A*31:01. Described as above.
The target of assay [17] is HLA-B*57:01. The description is as above.
Assay [18] addresses HLA-B*07:02. The description is as above.
The target of assay [19] is HLA-B*15:17. The assay is described as above. Particulars: source organism: Camelpox virus M-96.
Assay [20] addresses HLA-B*58:01. Described as above.
The target in assay [21] is HLA-A*11:01. Described as above.
The target of assay [22] is HLA-B*35:01. Description: IEDB peptide-MHC binding, purified MHC/competitive/fluorescence; filed as Kd, often an IC50 or EC50 that approximates it; ≥ and ≤ were set here for values at or beyond the usual limits of such assays. Particulars: source organism: Horsepox virus.
Assay [23] concerns the target HLA-B*44:02. Description: IEDB peptide-MHC binding, purified MHC/direct/fluorescence; filed as Kd, often an IC50 or EC50 that approximates it; ≥ and ≤ were set here for values at or beyond the usual limits of such assays. Particulars: source organism: Camelpox virus M-96.
In assay [24] the target is HLA-B*40:01. The description is as above.
In assay [25] the target is HLA-B*18:01. Described as above. Particulars: source organism: Camelpox virus M-96.
In assay [26] the target is HLA-B*15:09. Description: IEDB peptide-MHC binding, purified MHC/competitive/fluorescence; filed as Kd, often an IC50 or EC50 that approximates it; ≥ and ≤ were set here for values at or beyond the usual limits of such assays. Particulars: source organism: Vaccinia virus Copenhagen.
Assay [27] deals with HLA-B*39:01. Described as above. Particulars: source organism: Vaccinia virus Copenhagen.
The target of assay [28] is HLA-A*03:01. Description: IEDB peptide-MHC binding, purified MHC/direct/fluorescence; filed as Kd, often an IC50 or EC50 that approximates it; ≥ and ≤ were set here for values at or beyond the usual limits of such assays. Particulars: source organism: Giardia lamblia ATCC 50803.
Assay [29] has as its target HLA-B*08:02. Described as above. Particulars: source organism: Giardia lamblia ATCC 50803.
In assay [30] the target is HLA-B*08:01. Described as above. Particulars: source organism: Giardia lamblia ATCC 50803.
In assay [31] the target is HLA-A*02:03. The experiment in a line: IEDB peptide-MHC binding, purified MHC/competitive/fluorescence; filed as Kd, often an IC50 or EC50 that approximates it; ≥ and ≤ were set here for values at or beyond the usual limits of such assays.
Assay [32] concerns the target HLA-B*15:17. The description is as above. Particulars: source organism: Giardia lamblia ATCC 50803.
In assay [33] the target is HLA-A*02:11. Described as above. Particulars: source organism: Encephalitozoon cuniculi GB-M1.
Assay [34] deals with HLA-A*02:12. Described as above. Particulars: source organism: Encephalitozoon cuniculi GB-M1.
Assay [35] has as its target HLA-A*02:19. The description is as above. Particulars: source organism: Encephalitozoon cuniculi GB-M1.
Assay [36] concerns the target HLA-A*02:06. Described as above. Particulars: source organism: Encephalitozoon cuniculi GB-M1.
For assay [37], the target named is HLA-A*02:16. Described as above. Particulars: source organism: Encephalitozoon cuniculi GB-M1.
The target of assay [38] is HLA-A*69:01. Described as above. Particulars: source organism: Encephalitozoon cuniculi GB-M1.
Assay [39] deals with HLA-A*02:01. Described as above. Particulars: source organism: Encephalitozoon cuniculi GB-M1.
[40] abbreviates: source organism: Giardia lamblia ATCC 50803.
[41] abbreviates: source organism: Camelpox virus M-96.
[42] abbreviates: source organism: Mycobacterium tuberculosis.
The mark [43] stands for this setting: source organism: Mycobacterium tuberculosis str. Haarlem.
[44] abbreviates: source organism: Encephalitozoon cuniculi GB-M1.

The term Kd denotes the concentration at which binding is half-saturated. The low end stands for a tighter complex, the high end for a looser complex.

Take GMNPYHLAA: the equilibrium dissociation constant (Kd) in assay [1] is 0.296 µM; in assay [2] it was 0.065 µM; in assay [3] (setting [40]) it was no less than 20 µM; in [4] (setting [40]) it was 4.38 µM; in [5] (setting [40]), 0.0127 µM.

Regarding LLRDKDGVY, the Kd in assay [6] (setting [41]), in [7] (setting [41]), in assay [8] (setting [41]), in assay [9], in assay [10] (source organism: Variola virus) and in assay [11] (source organism: Variola virus) was no less than 20 µM throughout. In addition, the Kd in assay [12] (source organism: Variola virus) is 0.043 µM; in assay [13] (setting [41]), 0.0693 µM; in [14] (setting [41]) it was no less than 20 µM; in [15] (setting [41]), no less than 20 µM; in assay [16] (setting [41]), no less than 20 µM; in [17] (setting [41]), no less than 20 µM. Further, the Kd in [18] (setting [41]) was no less than 20 µM; in assay [19], 0.393 µM; in assay [3] (setting [41]), no less than 20 µM; in assay [20] (setting [41]) it was no less than 20 µM; in [4] (setting [41]), no less than 20 µM; in [21] (setting [41]) it was no less than 20 µM. For the same sequence, in assay [22], the Kd was found to be 0.0677 µM.

Consider SMRFESSPH, for which the Kd in assay [7] (setting [42]) amounted to 15.5 µM; in assay [12] (setting [43]) it was 0.049 µM; in assay [13] (setting [42]), 0.0093 µM; in [18] (setting [43]) it was 5.35 µM.

As to WENGFKVVL, the Kd in assay [6] (setting [41]) is no less than 20 µM; in [8] (setting [41]) it was no less than 20 µM; in assay [23], no less than 20 µM; in assay [24] (setting [41]), 0.004 µM; in assay [14] (setting [41]), 0.101 µM; in [15] (setting [41]) it was no less than 20 µM. Also, the Kd in [25] is no more than 0.001 µM; in assay [16] (setting [41]) it was no less than 20 µM; in assay [17] (setting [41]), no less than 20 µM; in assay [18] (setting [41]) it was no less than 20 µM; in assay [19], no less than 20 µM; in [3] (setting [41]), no less than 20 µM. The Kd was no less than 20 µM in assay [20] (setting [41]); no less than 20 µM in [4] (setting [41]); no less than 20 µM in assay [21] (setting [41]); 3.09 µM in assay [26]; 0.493 µM in assay [27].

Take IARLVYKAR: the Kd in [6] (setting [40]), in assay [28], in assay [7] (setting [40]), in assay [8] (setting [40]), in [10] (setting [40]) and in assay [29] was no less than 20 µM in each case. Besides, the Kd in assay [24] (setting [40]), in [30], in assay [11] (setting [40]), in assay [13] (setting [40]), in [14] (setting [40]) and in [15] (setting [40]) was no less than 20 µM throughout. Besides, the Kd is 0.0353 µM in [16] (setting [40]); no less than 20 µM in assay [17] (setting [40]); no less than 20 µM in [18] (setting [40]); no less than 20 µM in assay [3] (setting [40]); no less than 20 µM in assay [20] (setting [40]); no less than 20 µM in [4] (setting [40]). The Kd in [21] (setting [40]), in assay [31] (setting [40]) and in assay [32] was no less than 20 µM in each case.

Turning to ALEEGRKYV, the dissociation constant Kd in [33] was found to be 0.0029 µM; in assay [31] (setting [44]) it was 0.029 µM; in assay [34], 0.0425 µM; in [35], 0.437 µM; in [5] (setting [44]), 0.0123 µM; in assay [36], 0.0087 µM. Moreover, the Kd in assay [37] is 0.0068 µM; in [38], 5.7 µM; in [39] it was 0.654 µM.
